Experimental data: paper PMC6614801

Target: T1, SuhB (inositol mono-phosphatase SuhB), wild type (E. coli), P0ADG4
T1 chain: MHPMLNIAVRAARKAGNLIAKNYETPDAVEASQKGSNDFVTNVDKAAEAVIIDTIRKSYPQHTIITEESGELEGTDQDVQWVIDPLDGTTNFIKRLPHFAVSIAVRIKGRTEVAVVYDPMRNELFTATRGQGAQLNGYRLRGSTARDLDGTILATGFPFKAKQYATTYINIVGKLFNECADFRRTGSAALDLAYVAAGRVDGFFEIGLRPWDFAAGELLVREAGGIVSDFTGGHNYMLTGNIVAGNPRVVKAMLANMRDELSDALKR
Assay: SEC-MALS; 60 μl (15 nmol) of SuhB on Superdex 200 increase 10/300; 20 mM HEPES pH 7.5, 50 mM NaCl, 0.02% (w/v) NaN3
Details: remark: other sources report otherwise

B1: SuhB (inositol mono-phosphatase SuhB), wild type, P0ADG4 1-267 (natural protein)
chain: MHPMLNIAVRAARKAGNLIAKNYETPDAVEASQKGSNDFVTNVDKAAEAVIIDTIRKSYPQHTIITEESGELEGTDQDVQWVIDPLDGTTNFIKRLPHFAVSIAVRIKGRTEVAVVYDPMRNELFTATRGQGAQLNGYRLRGSTARDLDGTILATGFPFKAKQYATTYINIVGKLFNECADFRRTGSAALDLAYVAAGRVDGFFEIGLRPWDFAAGELLVREAGGIVSDFTGGHNYMLTGNIVAGNPRVVKAMLANMRDELSDALKR
stoichiometry N: 2
